Results as given in US20210032299A1.
Starred links: 1 amine or outer side, 2 acyl side, 3 side chain; linkers in the order of their positions; H or OH if unused. Non-standard residues stand in square brackets, D forms with d. Groups on a side chain read outwards from the residue. No end group written: not given here. *: point of attachment. C20 diacid = O=C(O)CCCCCCCCCCCCCCCCCCC(=O)*; αMePhe(2-F) = C[C@](N)(Cc1ccccc1F)C(=O)O; γGlu = O=C(O)[C@H](CCC(=O)[*:2])N[*:1]; 4Pal = N[C@@H](Cc1ccncc1)C(=O)O; αMeL = CC(C)C[C@](C)(N)C(=O)O; Orn = NCCC[C@H](N)C(=O)O; AEEA = NCCOCCOCC(=O)O; Aib = CC(C)(N)C(=O)O

T1: human glucose-dependent insulinotropic polypeptide (GIP) receptor (human), P48546
T1 chain: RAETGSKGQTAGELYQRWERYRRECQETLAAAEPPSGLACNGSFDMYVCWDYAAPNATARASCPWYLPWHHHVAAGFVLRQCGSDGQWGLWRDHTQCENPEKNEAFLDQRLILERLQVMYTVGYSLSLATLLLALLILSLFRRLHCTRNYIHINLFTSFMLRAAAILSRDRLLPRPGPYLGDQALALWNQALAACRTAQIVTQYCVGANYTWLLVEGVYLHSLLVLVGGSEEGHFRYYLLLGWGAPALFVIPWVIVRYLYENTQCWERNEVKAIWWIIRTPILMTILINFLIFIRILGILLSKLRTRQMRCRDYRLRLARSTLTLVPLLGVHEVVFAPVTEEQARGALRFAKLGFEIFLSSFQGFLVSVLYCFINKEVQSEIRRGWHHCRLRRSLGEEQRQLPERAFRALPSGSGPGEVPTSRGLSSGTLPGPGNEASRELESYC


Assays:
[1] = molecular target: human glucagon receptor (human), P47871; assay: SPA, displacement of [125I]-Gcg from hGcgR membranes, 0.1% bacitracin
[2] = molecular target: T1, human glucose-dependent insulinotropic …; assay: SPA, displacement of [125I]-GIP from hGIPR membranes, 0.1% bacitracin

Chain of human glucagon receptor (human), P47871 (P47871 26-477): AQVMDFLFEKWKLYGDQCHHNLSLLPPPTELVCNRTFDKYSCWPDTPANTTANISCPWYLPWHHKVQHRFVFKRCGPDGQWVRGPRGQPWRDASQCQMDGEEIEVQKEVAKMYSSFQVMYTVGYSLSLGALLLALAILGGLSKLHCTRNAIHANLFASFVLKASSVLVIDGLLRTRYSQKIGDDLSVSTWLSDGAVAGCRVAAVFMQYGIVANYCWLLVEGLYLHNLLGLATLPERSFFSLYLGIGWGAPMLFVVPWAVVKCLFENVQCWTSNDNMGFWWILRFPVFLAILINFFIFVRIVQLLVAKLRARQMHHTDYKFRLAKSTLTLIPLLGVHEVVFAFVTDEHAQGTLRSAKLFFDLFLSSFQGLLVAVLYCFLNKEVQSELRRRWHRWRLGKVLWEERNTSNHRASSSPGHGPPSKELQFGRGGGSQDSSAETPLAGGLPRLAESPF

Binder | Ki [1] | Ki [2]
Y[Aib]EGTFISDYSI[αMeL]LD[Orn]IRQ[Aib]DFVEYK([AEEA-AEEA-γGlu-C20 diacid])LEGGPSSGAPPPS-NH2 (N-terminus assumed; SMILES CC[C@H](C)[C@H](NC(=O)[C@H](CCCN)NC(=O)[C@H](CC(=O)O)NC(=O)[C@H](CC(C)C)NC(=O)[C@](C)(CC(C)C)NC(=O)[C@@H](NC(=O)[C@H](CO)NC(=O)[C@H](Cc1ccc(O)cc1)NC(=O)[C@H](CC(=O)O)NC(=O)[C@H](CO)NC(=O)[C@@H](NC(=O)[C@H](Cc1ccccc1)NC(=O)[C@@H](NC(=O)CNC(=O)[C@H](CCC(=O)O)NC(=O)C(C)(C)NC(=O)[C@@H](N)Cc1ccc(O)cc1)[C@@H](C)O)[C@@H](C)CC)[C@@H](C)CC)C(=O)N[C@@H](CCCNC(=N)N)C(=O)N[C@@H](CCC(N)=O)C(=O)NC(C)(C)C(=O)N[C@@H](CC(=O)O)C(=O)N[C@@H](Cc1ccccc1)C(=O)N[C@H](C(=O)N[C@@H](CCC(=O)O)C(=O)N[C@@H](Cc1ccc(O)cc1)C(=O)N[C@@H](CCCCNC(=O)COCCOCCNC(=O)COCCOCCNC(=O)CC[C@H](NC(=O)CCCCCCCCCCCCCCCCCCC(=O)O)C(=O)O)C(=O)N[C@@H](CC(C)C)C(=O)N[C@@H](CCC(=O)O)C(=O)NCC(=O)NCC(=O)N1CCC[C@H]1C(=O)N[C@@H](CO)C(=O)N[C@@H](CO)C(=O)NCC(=O)N[C@@H](C)C(=O)N1CCC[C@H]1C(=O)N1CCC[C@H]1C(=O)N1CCC[C@H]1C(=O)N[C@@H](CO)C(N)=O)C(C)C) [Example 116] | 178 nM | 0.166 nM
Y[Aib]EGTFISDYSI[αMeL]LD[Orn]IHQ[Aib]EFVEYK([AEEA-AEEA-γGlu-C20 diacid])LEGGPSSGAPPPS-NH2 (N-terminus assumed; SMILES CC[C@H](C)[C@H](NC(=O)[C@H](CCCN)NC(=O)[C@H](CC(=O)O)NC(=O)[C@H](CC(C)C)NC(=O)[C@](C)(CC(C)C)NC(=O)[C@@H](NC(=O)[C@H](CO)NC(=O)[C@H](Cc1ccc(O)cc1)NC(=O)[C@H](CC(=O)O)NC(=O)[C@H](CO)NC(=O)[C@@H](NC(=O)[C@H](Cc1ccccc1)NC(=O)[C@@H](NC(=O)CNC(=O)[C@H](CCC(=O)O)NC(=O)C(C)(C)NC(=O)[C@@H](N)Cc1ccc(O)cc1)[C@@H](C)O)[C@@H](C)CC)[C@@H](C)CC)C(=O)N[C@@H](Cc1c[nH]cn1)C(=O)N[C@@H](CCC(N)=O)C(=O)NC(C)(C)C(=O)N[C@@H](CCC(=O)O)C(=O)N[C@@H](Cc1ccccc1)C(=O)N[C@H](C(=O)N[C@@H](CCC(=O)O)C(=O)N[C@@H](Cc1ccc(O)cc1)C(=O)N[C@@H](CCCCNC(=O)COCCOCCNC(=O)COCCOCCNC(=O)CC[C@H](NC(=O)CCCCCCCCCCCCCCCCCCC(=O)O)C(=O)O)C(=O)N[C@@H](CC(C)C)C(=O)N[C@@H](CCC(=O)O)C(=O)NCC(=O)NCC(=O)N1CCC[C@H]1C(=O)N[C@@H](CO)C(=O)N[C@@H](CO)C(=O)NCC(=O)N[C@@H](C)C(=O)N1CCC[C@H]1C(=O)N1CCC[C@H]1C(=O)N1CCC[C@H]1C(=O)N[C@@H](CO)C(N)=O)C(C)C) [Example 107] | 347 nM | 0.0722 nM
Y[Aib]EGT[αMePhe(2-F)]ISDYSIALDKIHQ[Aib]DFVE[4Pal]K([AEEA-AEEA-γGlu-C20 diacid])LEGGPSSGAPPPS-NH2 (N-terminus assumed; SMILES CC[C@H](C)[C@H](NC(=O)[C@H](CO)NC(=O)[C@H](Cc1ccc(O)cc1)NC(=O)[C@H](CC(=O)O)NC(=O)[C@H](CO)NC(=O)[C@@H](NC(=O)[C@](C)(Cc1ccccc1F)NC(=O)[C@@H](NC(=O)CNC(=O)[C@H](CCC(=O)O)NC(=O)C(C)(C)NC(=O)[C@@H](N)Cc1ccc(O)cc1)[C@@H](C)O)[C@@H](C)CC)C(=O)N[C@@H](C)C(=O)N[C@@H](CC(C)C)C(=O)N[C@@H](CC(=O)O)C(=O)N[C@@H](CCCCN)C(=O)N[C@H](C(=O)N[C@@H](Cc1c[nH]cn1)C(=O)N[C@@H](CCC(N)=O)C(=O)NC(C)(C)C(=O)N[C@@H](CC(=O)O)C(=O)N[C@@H](Cc1ccccc1)C(=O)N[C@H](C(=O)N[C@@H](CCC(=O)O)C(=O)N[C@@H](Cc1ccncc1)C(=O)N[C@@H](CCCCNC(=O)COCCOCCNC(=O)COCCOCCNC(=O)CC[C@H](NC(=O)CCCCCCCCCCCCCCCCCCC(=O)O)C(=O)O)C(=O)N[C@@H](CC(C)C)C(=O)N[C@@H](CCC(=O)O)C(=O)NCC(=O)NCC(=O)N1CCC[C@H]1C(=O)N[C@@H](CO)C(=O)N[C@@H](CO)C(=O)NCC(=O)N[C@@H](C)C(=O)N1CCC[C@H]1C(=O)N1CCC[C@H]1C(=O)N1CCC[C@H]1C(=O)N[C@@H](CO)C(N)=O)C(C)C)[C@@H](C)CC) [Example 112] | 257 nM | 0.0742 nM
Y[Aib]EGTFISDYSI[αMeL]LDKIRQ[Aib]DFVEYK([AEEA-AEEA-γGlu-C20 diacid])LEGGPSSGAPPPS-NH2 (N-terminus assumed; SMILES CC[C@H](C)[C@H](NC(=O)[C@H](CCCCN)NC(=O)[C@H](CC(=O)O)NC(=O)[C@H](CC(C)C)NC(=O)[C@](C)(CC(C)C)NC(=O)[C@@H](NC(=O)[C@H](CO)NC(=O)[C@H](Cc1ccc(O)cc1)NC(=O)[C@H](CC(=O)O)NC(=O)[C@H](CO)NC(=O)[C@@H](NC(=O)[C@H](Cc1ccccc1)NC(=O)[C@@H](NC(=O)CNC(=O)[C@H](CCC(=O)O)NC(=O)C(C)(C)NC(=O)[C@@H](N)Cc1ccc(O)cc1)[C@@H](C)O)[C@@H](C)CC)[C@@H](C)CC)C(=O)N[C@@H](CCCNC(=N)N)C(=O)N[C@@H](CCC(N)=O)C(=O)NC(C)(C)C(=O)N[C@@H](CC(=O)O)C(=O)N[C@@H](Cc1ccccc1)C(=O)N[C@H](C(=O)N[C@@H](CCC(=O)O)C(=O)N[C@@H](Cc1ccc(O)cc1)C(=O)N[C@@H](CCCCNC(=O)COCCOCCNC(=O)COCCOCCNC(=O)CC[C@H](NC(=O)CCCCCCCCCCCCCCCCCCC(=O)O)C(=O)O)C(=O)N[C@@H](CC(C)C)C(=O)N[C@@H](CCC(=O)O)C(=O)NCC(=O)NCC(=O)N1CCC[C@H]1C(=O)N[C@@H](CO)C(=O)N[C@@H](CO)C(=O)NCC(=O)N[C@@H](C)C(=O)N1CCC[C@H]1C(=O)N1CCC[C@H]1C(=O)N1CCC[C@H]1C(=O)N[C@@H](CO)C(N)=O)C(C)C) [Example 115] | 373 nM | 0.0997 nM
Y[Aib]EGT[αMePhe(2-F)]ISDYSIALDKIHQ[Aib]DFVE[4Pal]K([AEEA-AEEA-γGlu-C20 diacid])LEAGPSSGAPPPS-NH2 (N-terminus assumed; SMILES CC[C@H](C)[C@H](NC(=O)[C@H](CO)NC(=O)[C@H](Cc1ccc(O)cc1)NC(=O)[C@H](CC(=O)O)NC(=O)[C@H](CO)NC(=O)[C@@H](NC(=O)[C@](C)(Cc1ccccc1F)NC(=O)[C@@H](NC(=O)CNC(=O)[C@H](CCC(=O)O)NC(=O)C(C)(C)NC(=O)[C@@H](N)Cc1ccc(O)cc1)[C@@H](C)O)[C@@H](C)CC)C(=O)N[C@@H](C)C(=O)N[C@@H](CC(C)C)C(=O)N[C@@H](CC(=O)O)C(=O)N[C@@H](CCCCN)C(=O)N[C@H](C(=O)N[C@@H](Cc1c[nH]cn1)C(=O)N[C@@H](CCC(N)=O)C(=O)NC(C)(C)C(=O)N[C@@H](CC(=O)O)C(=O)N[C@@H](Cc1ccccc1)C(=O)N[C@H](C(=O)N[C@@H](CCC(=O)O)C(=O)N[C@@H](Cc1ccncc1)C(=O)N[C@@H](CCCCNC(=O)COCCOCCNC(=O)COCCOCCNC(=O)CC[C@H](NC(=O)CCCCCCCCCCCCCCCCCCC(=O)O)C(=O)O)C(=O)N[C@@H](CC(C)C)C(=O)N[C@@H](CCC(=O)O)C(=O)N[C@@H](C)C(=O)NCC(=O)N1CCC[C@H]1C(=O)N[C@@H](CO)C(=O)N[C@@H](CO)C(=O)NCC(=O)N[C@@H](C)C(=O)N1CCC[C@H]1C(=O)N1CCC[C@H]1C(=O)N1CCC[C@H]1C(=O)N[C@@H](CO)C(N)=O)C(C)C)[C@@H](C)CC) [Example 113] | 821 nM | 0.108 nM
Y[Aib]EGTFISDYSI[αMeL]LD[Orn]IHQ[Aib]EFVEYK([AEEA-AEEA-γGlu-C20 diacid])LEQGPSSGAPPPS-NH2 (N-terminus assumed; SMILES CC[C@H](C)[C@H](NC(=O)[C@H](CCCN)NC(=O)[C@H](CC(=O)O)NC(=O)[C@H](CC(C)C)NC(=O)[C@](C)(CC(C)C)NC(=O)[C@@H](NC(=O)[C@H](CO)NC(=O)[C@H](Cc1ccc(O)cc1)NC(=O)[C@H](CC(=O)O)NC(=O)[C@H](CO)NC(=O)[C@@H](NC(=O)[C@H](Cc1ccccc1)NC(=O)[C@@H](NC(=O)CNC(=O)[C@H](CCC(=O)O)NC(=O)C(C)(C)NC(=O)[C@@H](N)Cc1ccc(O)cc1)[C@@H](C)O)[C@@H](C)CC)[C@@H](C)CC)C(=O)N[C@@H](Cc1c[nH]cn1)C(=O)N[C@@H](CCC(N)=O)C(=O)NC(C)(C)C(=O)N[C@@H](CCC(=O)O)C(=O)N[C@@H](Cc1ccccc1)C(=O)N[C@H](C(=O)N[C@@H](CCC(=O)O)C(=O)N[C@@H](Cc1ccc(O)cc1)C(=O)N[C@@H](CCCCNC(=O)COCCOCCNC(=O)COCCOCCNC(=O)CC[C@H](NC(=O)CCCCCCCCCCCCCCCCCCC(=O)O)C(=O)O)C(=O)N[C@@H](CC(C)C)C(=O)N[C@@H](CCC(=O)O)C(=O)N[C@@H](CCC(N)=O)C(=O)NCC(=O)N1CCC[C@H]1C(=O)N[C@@H](CO)C(=O)N[C@@H](CO)C(=O)NCC(=O)N[C@@H](C)C(=O)N1CCC[C@H]1C(=O)N1CCC[C@H]1C(=O)N1CCC[C@H]1C(=O)N[C@@H](CO)C(N)=O)C(C)C) [Example 106] | 304 nM | 0.0918 nM
